The text below walks through data of publication PMC7327485 (The EMBO Journal, 2020).

This data set concerns the molecule itself. Briefly: absorbance at 350 nm.

B1: farnesylated hGBP1 R584‐586A (hGBP1F ^R584‐586A) (natural protein)
chain: MASEIHMTGPMCLIENTNGRLMANPEALKILSAITQPMVVVAIVGLYRTGKSYLMNKLAGKKKGFSLGSTVQSHTKGIWMWCVPHPKKPGHILVLLDTEGLGDVEKGDNQNDSWIFALAVLLSSTFVYNSIGTINQQAMDQLYYVTELTHRIRSKSSPDENENEVEDSADFVSFFPDFVWTLRDFSLDLEADGQPLTPDEYLTYSLKLKKGTSQKDETFNLPRLCIRKFFPKKKCFVFDRPVHRRKLAQLEKLQDEELDPEFVQQVADFCSYIFSNSKTKTLSGGIQVNGPRLESLVLTYVNAISSGDLPCMENAVLALAQIENSAAVQKAIAHYEQQMGQKVQLPTETLQELLDLHRDSEREAIEVFIRSSFKDVDHLFQKELAAQLEKKRDDFCKQNQEASSDRCSALLQVIFSPLEEEVKAGIYSKPGGYRLFVQKLQDLKKKYYEEPRKGIQAEEILQTYLKSKESMTDAILQTDQTLTEKEKEIEVERVKAESAQASAKMLQEMQRKNEQMMEQKERSYQEHLKQLTEKMENDRVQLLKEQERTLALKLQEQEQLLKEGFQKESRIMKNEIQDLQTKMAAAKACTIS
modifications: C-terminal farnesyl moiety (added in vitro with farnesyltransferase and farnesyl pyrophosphate)
For B1, the binding result is “binds”.
